Here are results for 15 molecules from patent publication US20250109193A1 (FLAGSHIP PIONEERING INNOVATIONS VI, published 2025).

The target of experiment [1] is T1, human thymic stromal lymphopoietin (TSLP) (human, UniProt Q969D9 29-159). Kind of experiment: cell-based or functional assay.
Experiment [2] concerns the target T2, cynomolgus monkey TSLP (cynomolgus monkey).
T2 chain: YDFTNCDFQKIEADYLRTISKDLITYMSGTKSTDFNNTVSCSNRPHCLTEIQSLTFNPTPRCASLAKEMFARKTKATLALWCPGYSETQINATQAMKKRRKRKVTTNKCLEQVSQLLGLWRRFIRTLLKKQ
Kind of experiment: cell-based or functional assay.

Experiment [3] addresses T2, cynomolgus monkey TSLP. Kind of experiment: indirect ELISA, coated cyno TSLP; 95% CI in brackets.
Method: (§1) The next day, the plates were washed three times with ELISA wash buffer and blocked with ELISA assay diluent B (BioLegend) for one hour at room temperature (RT). […] Antibody binding was assessed using an 8-point titration curve in triplicates (1:3 serial dilution starting at 10 μg/mL). The plate was washed three times with ELISA wash buffer, and HRP-conjugated anti-human IgG-HRP secondary antibody (Jackson ImmunoResearch Laboratories, Inc.) was added to wells at a 1:5000 dilution in 1×ELISA assay diluent. Secondary antibody was added to detect binding of the primary antibody to the antigen. The plate was incubated for 30 minutes at room temperature with the secondary detection antibody, then the plates were washed three times with ELISA wash buffer and developed with TMB substrate solution (Invitrogen, Waltham, MA). The HRP enzymatic reaction was stopped after about 1 minute with acidic stop solution (Invitrogen), and the absorbance at 450 nm on a Biotek plate reader.
(§2) The EC₅₀ values were calculated using Graphpad Prism 9.2.0 by fitting a four-parameter non-linear regression curve to the average absorbance values of three technical replicates per concentration with three independent experiments. […] N=4 independent experiments with 3 technical replicates. […] N=3 independent experiments with 3 technical replicates.
For experiment [4], the target named is T1, human thymic stromal lymphopoietin …. Put plainly: indirect ELISA, coated human TSLP; 95% CI in brackets.
Method: as §1, §2
Experiment [5] deals with T3, mouse TSLP (mouse, UniProt Q9JIE6 20-140).
T3 construct: also called mouse TSLP cytokine
T3 sequence (looked up): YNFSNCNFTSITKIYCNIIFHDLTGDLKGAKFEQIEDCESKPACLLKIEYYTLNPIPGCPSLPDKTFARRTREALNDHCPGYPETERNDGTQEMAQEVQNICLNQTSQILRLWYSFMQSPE
Put plainly: direct ELISA: plate coated with 2 µg/mL mouse TSLP, anti-human IgG-HRP, absorbance at 450 nm.
Method: as §1, §2

Experiment [6] deals with T1, human thymic stromal lymphopoietin …. Put plainly: KinExA, solution equilibrium, 25 C.
Method: The solution equilibrium binding experiments were performed using KinExA 3200 instrument equipped with an autosampler (Sapidyne Instruments, Boise, ID, USA). All analyses were performed at 25° C., and all samples were prepared in 1× phosphate-buffered saline (PBS) filtered buffer supplemented with 1 mg/mL bovine serum albumin (BSA) and 0.02% sodium azide. […] The beads were washed with blocking buffer (1 M Tris supplemented with 10 mg/mL BSA, pH 8.0) and rocked for 1 hour.
The sample injection volumes and flow rates were varied depending upon the antibody tested. […] The concentration, volume and flow rate of the secondary antibody were varied to achieve a signal at less than 1.0 V.
A 1:1 binding equilibrium model was used with the titrant selected as the reference concentration. The drift correction option was used where appropriate.
Experiment [7] has the same target. Put plainly: indirect ELISA, coated recombinant hTSLP.
Method: The next day, the plate was washed three times with ELISA Wash Buffer (PBS-Tween 0.5%), blocked with 1×ELISA assay diluent (BioLegend) for one hour. […] The plate was washed three times with ELISA Wash Buffer, and horseradish peroxidase (HRP)-conjugated anti-human IgG Fc secondary antibody (Promega, Madison, WI) at 1:2000 dilution in 1×ELISA assay diluent was added to detect binding of the primary antibody to the antigen. The plate was incubated for 30 minutes at 37° C. with the secondary detection antibody, then the plate was washed and developed with tetramethyl benzidine (TMB) substrate solution (Thermo Fisher Scientific, Waltham, MA). The HRP enzymatic reaction was stopped after about 1 minute with acidic stop solution (Thermo Fisher Scientific), and the absorbance at 450 nm was determined using a standard plate reader. The EC₅₀ values were calculated by fitting a four-parameter non-linear regression line to the average of two technical replicates per concentration.
Experiment [8] shares this target. Put plainly: blocking ELISA: antibody titrated against hTSLP-biotin, coated hTSLPR/hIL-7Rα-Fc.
Method: A 96 well half area flat bottom plate was coated with 50 μL of recombinant heterodimeric human TSLPR and human IL-7Rα Fe tagged fusion protein (2 μg/mL) in ELISA coating buffer. The plate was incubated overnight at 4° C. and was washed thrice with 150 μL ELISA Wash Buffer (1×PBS-Tween 0.5%) the next day. The plate was blocked with 50 μL of ELISA assay diluent for one hour at 37° C. and was washed three times with 150 μL of ELISA wash buffer. […] The ELISA plate was incubated for 1 hour at 37° C. followed by washing three times with ELISA wash buffer. HRP-Streptavidin (Thermo Fisher Scientific) was diluted 1:2000 in ELISA assay diluent 50 μl was added to each well and incubated for 30 minutes at 37° C. followed by washing three times with ELISA wash buffer. The ELISA was developed by addition of 50 μL of TMB substrate (Thermo Fisher Scientific) and incubation for 2-3 minutes at room temperature (protected from light). The reaction was stopped with acidic stop solution (Thermo Fisher Scientific), and the absorbance was read at 450 nm wavelength using a standard plate reader. Percent inhibition of signal and IC₅₀ values were determined.
A blocking ELISA was performed by coating an ELISA plate with hTSLPR overnight. […] The ELISA plate was incubated for 1 hour at 37° C., followed by washing of the plate. […] The ELISA was developed with TMB substrate, and the HRP enzymatic reaction was stopped with sulfuric acid solution.

B1: AB-2a (antibody, human IgG1, lambda)
heavy: not shown
light: SYVLTQPPSVSVAPGQTARITCGGNNIGSKSVHWYQQKPGQAPVLVVYDDSDRPSWIPERFSGSNSGNTATLTISRGEAGDEADYYCQIWDSSSSLVVFGGGTKLTVLGQPKAAPSVTLFPPSSEELQANKATLVCLISDFYPGAVTVAWKADSSPVKAGVETTTPSKQSNNKYAASSYLSLTPEQWKSHRSYSCQVTHEGSTVEKTVAPTECS
In the case of B1, the “IC50, human TSLPR/IL-7Rα Ba/F3 STAT5-luciferase assay” value in experiment [1] turned out to be 0.02 µg/mL. Also, in experiment [2], the “IC50, cyno TSLPR/IL-7Rα Ba/F3 STAT5-luciferase assay” value turned out to be 0.03 µg/mL. This molecule registered an 80% effect concentration (EC80) in experiment [3] of 0.1 µg/mL. In experiment [4], this molecule gave an EC50 of 0.03 µg/mL, an EC80 of 0.09 µg/mL and an EC90 of 0.15 µg/mL. Further, the binding result in experiment [5] is “no binding (tested: about 5 µg/ml)”.

B2: AB-8 (antibody, V domains shown)
VH: QMQLVESGGGVVQPGRSLRLSCAASGFTFRTYGMHWVRQAPGKGLEWVAVIWYDGSYTHYADSVKGRFTITRDNSKNTLNLQMNSLRAEDTAVYYCARSPQWEDIFEAFDIWGQGTMVTVSS
VL: SYVLTQPPSVSVAPGQTARITCGGNNIGSKSVHWYQQKPGQAPVLVVYDDSDRPSWIPERFSGSNSGNTATLTISRGEAGDEADYYCQVWDSSSSLVVFGGGTKLTVL
Molecule B2 had a Kd in experiment [6] of 0.000335 nM.

B3: AB-11 (antibody, V domains shown)
VH: QMQLVESGGGVVQPGRSLRLSCAASGFTFRTYGMHWVRQAPGKGLEWVAVISYSGSYIHYADSVKGRFTITRDNSKNTLNLQMNSLRAEDTAVYYCTRSPQWEEVYEALDIWGQGTMVTVSS
VL: SYVLTQPPSVSVAPGQTARITCGGNNIGSFSVHWYQQKPGQAPVLVVYDDSDRPSWIPERFSGSNSGNTATLTISRGEAGDEADYYCQVWSSTSRHVVFGGGTKLTVL
For the molecule B3, binding in experiment [6] was characterised by a dissociation constant (Kd) of 0.000754 nM. The EC50 in experiment [7] is 0.173 nM. Besides, in experiment [8], it took 0.243 nM to reach half-maximal inhibition (IC50).

B4: AB-5 (antibody, V domains shown)
VH: QMQLVESGGGVVQPGRSLRLSCAASGFTFRTYGMHWVRQAPGKGLEWVAVVWYDGYDTHYADSVKGRFTITRDNSKNTLNLQMNSLRAEDTAVYYCSRSPQWEDIFESMDIWGQGTMVTVSS
VL: SYVLTQPPSVSVAPGQTARITCGGNNLGSKSVHWYQQKPGQAPVLVVYDDSDRPSWIPERFSGSNSGNTATLTISRGEAGDEADYYCQVWDMSSDLVVFGGGTKLTVL
Take B4: in experiment [6], the affinity, expressed as Kd, was 0.00014 nM. In addition, the concentration for a half-maximal effect (EC50) in experiment [7] was 0.264 nM. In experiment [8], this molecule yielded an IC50 of 0.246 nM.

B5: AB-1 (antibody, V domains shown)
VH: QMQLVESGGGVVQPGRSLRLSCAASGFTFRTYGMHWVRQAPGKGLEWVAVVWYSGSYTHYADSVKGRFTITRDNSKNTLNLQMNSLRAEDTAVYYCSRSPQWEDIFEAMDIWGQGTMVTVSS
VL: SYVLTQPPSVSVAPGQTARITCGGNNIGSKSVHWYQQKPGQAPVLVVYDDSDRPSWIPERFSGSNSGNTATLTISRGEAGDEADYYCQVWDSSSSLVVFGGGTKLTVL
B5: the Kd in experiment [6] turned out to be 0.000208 nM. Further, in experiment [7], the EC50 was 0.265 nM.

B6: AB-14 (antibody, V domains shown)
VH: QMQLVESGGGVVQPGRSLRLSCAASGFTFRTYGMHWVRQAPGKGLEWVAVIWYDGSTKHYADSVKGRFTITRDNSKNTLNLQMNSLRAEDTAVYYCARAPQWELVHEAFDIWGQGTMVTVSS
VL: SYVLTQPPSVSVAPGQTARITCGGNNIGSKNVHWYQQKPGQAPVLVVYDDSDRPSWIPERFSGSNSGNTATLTISRGEAGDEADYYCQVWDESSDEVVFGGGTKLTVL
On to B6, for which the Kd in experiment [6] worked out at 0.000877 nM. The EC50 in experiment [7] was 0.264 nM. In experiment [8], this molecule had an IC50 of 0.186 nM.

B7: AB-4 (antibody, V domains shown)
VH: QMQLVESGGGVVQPGRSLRLSCAASGFTFRTYGMHWVRQAPGKGLEWVAVIWYSGSDTHYADSVKGRFTITRDNSKNTLNLQMNSLRAEDTAVYYCARSPQWEDIFESMDVWGQGTMVTVSS
VL: SYVLTQPPSVSVAPGQTARITCGGNYIGSFSVHWYQQKPGQAPVLVVYDDSDRPSWIPERFSGSNSGNTATLTISRGEAGDEADYYCQIYVSASRLVVFGGGTKLTVL
As to B7, the Kd in experiment [6] turned out to be 0.000208 nM. The EC50 in experiment [7] amounted to 0.26 nM.

B8: AB-2 (antibody, human IgG1, V domains shown)
VH: QMQLVESGGGVVQPGRSLRLSCAASGFTFRTYGMHWVRQAPGKGLEWVAVVWYDGSYTHYADSVKGRFTITRDNSKNTLNLQMNSLRAEDTAVYYCARSPQWEEIFEAMDIWGQGTMVTVSS
VL: SYVLTQPPSVSVAPGQTARITCGGNNIGSKSVHWYQQKPGQAPVLVVYDDSDRPSWIPERFSGSNSGNTATLTISRGEAGDEADYYCQIWDSSSSLVVFGGGTKLTVL
In experiment [6], B8 gave a Kd of 0.000123 nM. The half-maximal effective concentration (EC50) in experiment [7] is 0.204 nM. This molecule gave an IC50 in experiment [8] of 0.29 nM.

B9: AB-7 (antibody, V domains shown)
VH: QMQLVESGGGVVQPGRSLRLSCAASGFTFRTYGMHWVRQAPGKGLEWVAVIWYSGAYIHYADSVKGRFTITRDNSKNTLNLQMNSLRAEDTAVYYCSRSPQWEDIFEAMDIWGQGTMVTVSS
VL: SYVLTQPPSVSVAPGQTARITCGGNNLGSYSVHWYQQKPGQAPVLVVYDDSDRPSWIPERFSGSNSGNTATLTISRGEAGDEADYYCQVWDMSSSLVVFGGGTKLTVL
On to B9, for which binding in experiment [6] was put at a Kd of 0.000184 nM. Besides, the EC50 in experiment [7] turned out to be 0.29 nM. In experiment [8], this molecule registered an IC50 of 0.162 nM.

B10: AB-3 (antibody, V domains shown)
VH: QMQLVESGGGVVQPGRSLRLSCAASGFTFRTYGMHWVRQAPGKGLEWVAVIWYDGTYTHYADSVKGRFTITRDNSKNTLNLQMNSLRAEDTAVYYCARSPQWESIFEAFDIWGQGTMVTVSS
VL: SYVLTQPPSVSVAPGQTARITCGGNNIGSKSVHWYQQKPGQAPVLVVYDDSDRPSWIPERFSGSNSGNTATLTISRGEAGDEADYYCQVWDSSSSLVVFGGGTKLTVL
With B10, the Kd in experiment [6] was determined as 0.000302 nM. In addition, the 50% effective concentration (EC50) in experiment [7] came out at 0.237 nM. This molecule yielded an IC50 in experiment [8] of 0.232 nM.

B11: AB-13 (antibody, V domains shown)
VH: QMQLVESGGGVVQPGRSLRLSCAASGFTFRTYGMHWVRQAPGKGLEWVAVISYDGSTKHYADSVKGRFTITRDNSKNTLNLQMNSLRAEDTAVYYCARAPQWESVYEAFDIWGQGTMVTVSS
VL: SYVLTQPPSVSVAPGQTARITCGGNNLGSFSVHWYQQKPGQAPVLVVYDDSDRPSWIPERFSGSNSGNTATLTISRGEAGDEADYYCQVWDSSEDLVVFGGGTKLTVL
Consider B11, for which, in experiment [7], the EC50 was determined as 0.23 nM. Also, in experiment [8], it took 0.223 nM to reach half-maximal inhibition (IC50).

B12: AB-6 (antibody, V domains shown)
VH: QMQLVESGGGVVQPGRSLRLSCAASGFTFRTYGMHWVRQAPGKGLEWVAVVWYDGSDIHYADSVKGRFTITRDNSKNTLNLQMNSLRAEDTAVYYCSRSPQWEDIFESMDIWGQGTMVTVSS
VL: SYVLTQPPSVSVAPGQTARITCGGNNIGSKSVHWYQQKPGQAPVLVVYDDSDRPSWIPERFSGSNSGNTATLTISRGEAGDEADYYCQIWDSSSDHVVFGGGTKLTVL
The molecule B12 displayed a Kd in experiment [6] of 0.000133 nM. The EC50 in experiment [7] came to 0.397 nM.

B13: AB-10 (antibody, V domains shown)
VH: QMQLVESGGGVVQPGRSLRLSCAASGFTFRTYGMHWVRQAPGKGLEWVAVIWYSGTTTHYADSVKGRFTITRDNSKNTLNLQMNSLRAEDTAVYYCSRSPQWEDIFESMDIWGQGTMVTVSS
VL: SYVLTQPPSVSVAPGQTARITCGGNNIGSKNVHWYQQKPGQAPVLVVYDDSDRPSWIPERFSGSNSGNTATLTISRGEAGDEADYYCQVWDSSDFLVVFGGGTKLTVL
B13 gave a Kd in experiment [6] of 0.000395 nM. Further, in experiment [7], the EC50 turned out to be 0.286 nM. The molecule also yielded an IC50 in experiment [8] of 0.251 nM.

B14: AB-9 (antibody, V domains shown)
VH: QMQLVESGGGVVQPGRSLRLSCAASGFTFRTYGMHWVRQAPGKGLEWVAVIWYDGSYTHYADSVKGRFTITRDNSKNTLNLQMNSLRAEDTAVYYCARSPQWESIFEAFDIWGQGTMVTVSS
VL: SYVLTQPPSVSVAPGQTARITCGGNNIGSKSVHWYQQKPGQAPVLVVYDDSDRPSWIPERFSGSNSGNTATLTISRGEAGDEADYYCQVWDSSSSLVVFGGGTKLTVL
Regarding B14, binding in experiment [6] was characterised by a dissociation constant (Kd) of 0.000496 nM. Moreover, it took 0.227 nM to reach half-maximal inhibition in experiment [8] (IC50).

B15: AB-12 (antibody, V domains shown)
VH: QMQLVESGGGVVQPGRSLRLSCAASGFTFRTYGMHWVRQAPGKGLEWVAVVWYDGSNTHYADSVKGRFTITRDNSKNTLNLQMNSLRAEDTAVYYCARAPQWESVHEAFDIWGQGTMVTVSS
VL: SYVLTQPPSVSVAPGQTARITCGGNNIGRFSVHWYQQKPGQAPVLVVYDDSDRPSWIPERFSGSNSGNTATLTISRGEAGDEADYYCQVWVSTSDKVVFGGGTKLTVL
On to B15, for which the Kd in experiment [6] was determined as 0.00102 nM. For the same molecule, the EC50 in experiment [7] came to 0.291 nM. 0.29 nM corresponded to half-maximal inhibition in experiment [8] (IC50).
